# What was measured:
# Test in all cases: cell-based or functional assay
# [1] = target: GBSIII-OVAp (GBSIII conjugated to N-acetylated, C-terminally extended OVA323-339)
# [2] = target: OVA peptide 323-339 (OVAp)
# [3] = target: scrambled OVA peptide, scOVAp
substance,measurement,setting,value
T-cell receptor of DO11.10 transgenic mice that recognizes OVA peptide 323-339 in the context of MHC class II (I-A^d) (TCR),"T cell proliferation, [3H]thymidine incorporation, 10 µg GBSIII-OVAp",[1],12700 cpm
same,fold lower T cell proliferation against the same amount of OVAp,[1],23 fold
same,"T cell proliferation, [3H]thymidine incorporation, 2.5 µg OVAp",[2],285000 cpm
same,"T cell proliferation, stimulation index (SI), 0.013 µg OVAp",[2],35 SI
same,"T cell proliferation, stimulation index (SI), 0.13 µg OVAp",[2],781 SI
same,"T cell proliferation, stimulation index (SI), 1.3 µg OVAp",[2],2940 SI
same,"T cell proliferation, [3H]thymidine incorporation",[3],< 500 cpm

# Reference: patent US9358302
